{"source": "paper PMC4935545", "about": "(Molecular cell, 2016)", "molecules": {"B1": {"name": "S. pombe Mis18 (recombinant) (natural protein, UniProt Q9P802 1-194, looked up)", "chain": "MSQTETSHSGYIDFKKESQPSVFQCKKCFQIVGDSNAWVISHREYLSFTLSDAVENSVRVEDTFKRSDDGLCVYSELSCTRCNEVIGKVYNSTPIYLDDIRDMYTFSMDKLQAYQLGNKTVNPEGLTRYQVDLEMREDIIKLKSFCLSLYEKFELHDETLRSVKETISSLKKPKIEGKEGKKEKARTYSKRTRK"}}, "key": {"[1]": {"target": "mCLI-Mis18α (human) (UniProt Q9NYP9)", "sequence (Q9NYP9 whole entry)": "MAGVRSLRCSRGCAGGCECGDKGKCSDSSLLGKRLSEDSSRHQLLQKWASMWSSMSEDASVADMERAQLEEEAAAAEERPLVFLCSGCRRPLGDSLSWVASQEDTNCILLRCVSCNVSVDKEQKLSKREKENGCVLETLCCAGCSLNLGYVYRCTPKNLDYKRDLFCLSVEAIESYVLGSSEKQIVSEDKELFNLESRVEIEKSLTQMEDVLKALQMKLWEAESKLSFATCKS"}, "[2]": {"target": "His-tagged Mis18α (human) (UniProt Q9NYP9)", "experiment": "SEC + other: glycerol gradient sedimentation"}, "[3]": {"target": "MBP-HJURP^R1 (human) (UniProt Q8NCD3)", "sequence (Q8NCD3 348-555)": "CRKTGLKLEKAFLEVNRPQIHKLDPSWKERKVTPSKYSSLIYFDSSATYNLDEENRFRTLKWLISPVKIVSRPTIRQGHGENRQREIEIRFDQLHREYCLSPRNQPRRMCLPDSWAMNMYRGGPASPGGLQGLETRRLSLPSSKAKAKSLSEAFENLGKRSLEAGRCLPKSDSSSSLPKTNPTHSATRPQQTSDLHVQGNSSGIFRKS", "experiment": "SEC + other: glycerol gradient sedimentation"}, "[4]": {"target": "Strep-tagged Mis18β (human) (UniProt O43482)", "sequence (O43482 whole entry)": "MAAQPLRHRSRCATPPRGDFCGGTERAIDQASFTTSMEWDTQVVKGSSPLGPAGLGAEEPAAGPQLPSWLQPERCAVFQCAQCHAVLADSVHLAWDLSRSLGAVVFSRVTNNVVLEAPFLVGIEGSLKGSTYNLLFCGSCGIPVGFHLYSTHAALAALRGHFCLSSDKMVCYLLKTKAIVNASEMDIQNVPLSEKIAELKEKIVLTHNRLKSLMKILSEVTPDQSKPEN", "experiment": "SEC + other: glycerol gradient sedimentation"}, "[5]": {"target": "MBP-HJURP^R1 (human) (UniProt Q8NCD3)", "experiment": "pull-down"}, "[6]": {"target": "the molecule itself", "experiment": "SEC + other: glycerol gradient sedimentation"}}}
{"molecule": "GFP-Mis18β (from UniProt O43482 1-229) (natural protein)", "values": [{"measurement": "percent of transfected cells with recruitment to the array", "setting": "[1]", "value": 100, "unit": "%"}]}
{"molecule": "His-tagged Mis18α (from UniProt Q9NYP9 1-233) (natural protein)", "values": [{"measurement": "stoichiometry N", "setting": "[2]", "value": 2}, {"measurement": "stoichiometry N", "setting": "[3]", "value": 1}, {"measurement": "stoichiometry N", "setting": "[4]", "value": 1}]}
{"molecule": "Mis18α-β heterotetramer (preformed from recombinant Mis18α and Mis18β) (from UniProt Q9NYP9 1-233; O43482 1-229) (complex)", "values": [{"measurement": "fold binding against Mis18α or Mis18β alone", "setting": "[5]", "value": 2, "unit": "fold"}]}
{"molecule": "Strep-tagged Mis18β (from UniProt O43482 1-229) (natural protein)", "values": [{"measurement": "stoichiometry N", "setting": "[3]", "value": 1}, {"measurement": "stoichiometry N", "setting": "[4]", "value": 2}]}
{"molecule": "B1", "values": [{"measurement": "stoichiometry N", "setting": "[6]", "value": 4}]}
